B1: Index 54 (designed binder)
chain: GDKHEEAKEEAEKKFEKLRIEARLKAEWLKKAGKYGLQLQELWAKLSDYWIAFALEIIGDLFNFLEEHKEKIEKDLKKGEALDDRADDILKDLEKKAKEVSKHAMKLGREAQQFIELG
B2: Index 42 (designed binder)
chain: GQQEEQFIEDFKKEVLRAADDAKDDMEKRAEEFLKKDGDDNEKKRKILKWIADALEAIGDLFNAAQEAKRRAELYFKLGLLKKERKEEAEEEAEKAKEEASKKLHKAAREARIKMEKG
B3: Index 63 (designed binder)
chain: GDDKEKVKDYAKKRALEDVLRAKELAEKFIDEAKKSDHSKQNERQYIIAWIAFMLMAIGDVFNAMMEAKRLAELLKRLGLRRWEEAEEVKQKAEELAEEASRLLADLGKDFAKKIEQG
B4: Index 40 (designed binder)
chain: GNEAEQRREEFKEIMEKKKDEAEKKSEKIKRLALAFDLSDDDKTKATDEWIAISLEIIGDAFNFGEGLKDEAKRRKKRGLKRDEEVDKFEKIAEQAIEELRKLAEEADERGAKHLRDG
B5: Index 57 (designed binder)
chain: GDLKEELKERAKKIIRRALDEAKDAEDLIKKEAEKRYVTTEMATKFVAWWIAGALMIIGDIFNAAREVKERAEKALKWGVLSQDDIKELLLELENLEQEAKERAKEFGEKAEKFKKMG
B6: Index 48 (designed binder)
chain: GEKGKEKAQKFRDIIKDILEEAIRLAKDLAEDAKKFDLKLEKLLEATLKWIAAALMAIGDLFNFKDLAEKEVRERHDRGEISSDRRDKYEKEAREGADEAAKELSKLAKIAEKKILEG
B7: Index 59 (designed binder)
chain: GITLEKLWKEAKEKIRKREDEALLKAEWFKKKANNVLDLNDMKAKMTAKWIALALMAIGDIFNYLLETEIKARLLVRLGLFRQEEAEKKKEEAKEEAIKSSRNIAKRGEEAAKQMEQG
B8: Index 53 (designed binder)
chain: GHVAEEEIRRFLRKAEKVLQEARRKMEKRRREAEEHDTTTWLLARGTIEWIADALMLIGDAFNFRREAYIRGELYKKFGLIREDDLKDRLKEADQRLDEFAKKMALFGLELHLRLREG
B9: Index 61 (designed binder)
chain: GEHLDELLLKLLWLAIQFAERAKLTIELWKLWGKITQSYNEWAEKAARDWIAAALMIIGDMFNHKQKAEEEAKKFAKKGLKRKEELEELLKKLEEFIKRAKKLIKETAQKHEEASKMG
B10: Index 46 (designed binder)
chain: GRDGERVVKWAKNQHENTVDEAKDKMDNQEDEMRKKNADDEKLRKETHKWIAFALEAIGDVFNDAMQAFELLERFKKFGQQEQKKLDEFKEKVERLAREASRKLTYLGKRFALDIESG
B11: Index 66 (designed binder)
chain: GRSKDDATKEAWERLERLLKEFKEKAEKLRDKAQAHYVYKQFALKVTILWIAWALKLIGDAFNFIEEAEKKMRENRERNLISEDDAREEKRKLEEFARRASKKANKIGDDLDRQLELG
B12: Index 65 (designed binder)
chain: GNDLKDIARQIEEQAKKALDDMAKLIRELAEKAEKFYPSKDDIRRLTHYWIAAALMAIGDAFNRLQEARRRAEWLRKWGLRREEEAEKAKKEAEERHERAKELAHKMGDEMEEKLKRG
B13: Index 50 (designed binder)
chain: GKRAEELREEAEERAKEAFKETEQKLREVEERSRQTLARDEELRKAALLWIAAALMGIGDLFNKKEKGKEALEKEEKNGKRRTERAEREKERLEKEVSREAQRFKKKGEEEEKKHKYG
B14: Index 52 (designed binder)
chain: GNDKEKFREDVKKKAKYALWKLKKLADEAKERALKFDPSEEMKREFTLEWIAWALEAIGDIFNAWLDGKKYADEAKKQGKARKEEAEETKKEATRIAKEAHEKASELARKILYHMLLG
B15: Index 44 (designed binder)
chain: GESGEWILEKTREKIERAIRDAEKKLRLIILLIRLFHPGDDLRALFAAIWIAAELELIGDIFNEKQDAEEKFKELLKKNQFRWEELWRKWLILEWIFQKARRKSKELAERAKKAFDFG
B16: Index 45 (designed binder)
chain: GYSLDDFLKLAKLLAELLKRFIRKEAERLRELKEWLLDTTLGRLILTLEWIAIELMIIGDIFNAKMLLDKFAKYAEWLGLMKEEEAKQAKKLAKLLLDEVKDEARKKADDGEKFAEEG
B17: Index 64 (designed binder)
chain: GLSGDDAEDFARQEIEKRAREAEEKARKLIWLASKYDAKREEALKFHLRWIAFALMMIGDAFNAEEIAREMLEIARELGLTREEEAKEKLEKIRKKETEASKKMAERGRRLDNQANNG
B18: Index 62 (designed binder)
chain: GKLGEELREDAEKKGEEDMRRFERRIREIKRKLKFGYDFEQRKREATHKWIAFALEMIGDAFNFAQKLERALELFKKWNIYSEDDLRELKKRFEEAKEKLKKFADRIRDEGLKAVLLG
B19: Index 68 (designed binder)
chain: GVSIEWAFDFLENKAEEDAREARRLAQKLAEEFFKHSAREEDRAKLTKKWIAVALMIIGDIFNVEQFTKQQGEEFVKRGLRSEDDFKEYLRKMEEKKEEAERIAKRAKDDMLKARDLG
B20: Index 55 (designed binder)
chain: GEEAEKLIKEAKDKFEDLREKAEELLYKMWLIRYLSSKDTKRGEIYTKKWIAIMLMMIGDAFNMALRARLYLEERRKRGEKHEEEAEEKERRARWEQEDAYKKAKKGAKRARLYDKLG
B21: Index 38 (designed binder)
chain: GEKLKKLAEELEKKFRKLFFILKDELDRAYLIALKTQVQRQELARDTKLWIAVALMIIGDLFNAEIQGKELRDKLIKKNQVEEQKAKEFWKKWEEVKQRAEELIKKGGEMVERLADYG
B22: Index 41 (designed binder)
chain: GEQEDKVKERAKRGALERAREMFEKMRKAIYLAELYINNDEGKTKLTDRWIAFALMMIGDIFNIALEARLEALKLVLKGLRSQEDAEKVKKLAEEAEREAAKRAAKLGDKMDEKEHEG
B23: Index 56 (designed binder)
chain: GESAEKWRERLREKAGYWAEYAFWLADEAEKRAKIYSASSERRAEWTMRWIAIALAAIGDVFNEGQKADEKFDELKKQNKRSDDDLDDYKDKFKEEVEKALRKLLKAGDKIADLAEQG
B24: Index 49 (designed binder)
chain: GWSKDWVLEWLREKLEEIDREALWKFILIWIEKMLGVDDDEQRRKDAAKWIAGSLEAIGDIFNAMMWAKRLLEWLEKANLVRREELEKAKQKAEELAKKAALRAAIYSKIAEEWLWKG
B25: Index 43 (designed binder)
chain: GKKAEEVLKEARKLHEAQLRYAYLMMKDWREKKQQEEKQTQREEKWTAWWIALMLMAIGDIFNFAEWAKEELDKLREKGLVEKKKAEEAKEKAEKLAEEASRRASEFAQLFAKWDKEG
B26: Index 39 (designed binder)
chain: GKKYLKAARLALYLLWEAYLRGYLNLLLDELEAEFFDPHDERKIRYTINWIADALMLIGDLFNARLKMEKALWELKKEGKLREEDYEKMERLFRKWMELAFKWLEHFREMAEKAKKKG
B27: Index 58 (designed binder)
chain: GEKAKKLEEYAREEIERALREGGDLMEEEREFGEKTELTTEWKHRAMAYWIAAALMIIGDGFNALQFIEEEGRKFIRKGEFARQKIEEHKERAKERLEKALKQAKKRGDELDRFARLG
B28: Index 60 (designed binder)
chain: GRQEDEIKDEATKRALEILQKLEQKVRKAKKFAKYGLLLQRWWAWITKVWIAAALDAIGDAFNLGEELKRILEELRRRGLSSEEKAQEIKNWIEWLEKWVAIMAKLFGEELEKQFKQG
B29: Index 51 (designed binder)
chain: GWTALWLKDFTEQEARKKFREALYYGWMMAMRALEHQLQADELAMWTALWIAAMLEAIGDMFNDKLRAEKYALLLIWLNLYHKDIAEKWREEHEEKLKEALQEMFEAAEKFDKFAKFG

Target: T1, Epstein-Barr virus BHRF1 a.a. 1-161 with C-terminal avi-6his tag (Epstein-Barr virus)
T1 construct: also called EBV BHRF1; BHRF1-biotin
T1 chain: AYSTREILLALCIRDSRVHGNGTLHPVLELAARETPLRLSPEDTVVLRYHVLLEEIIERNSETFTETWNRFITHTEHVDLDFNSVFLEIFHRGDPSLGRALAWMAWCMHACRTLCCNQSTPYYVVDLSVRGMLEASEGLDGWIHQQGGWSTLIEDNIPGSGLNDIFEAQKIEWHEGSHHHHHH
Test: yeast display library, FACS sort at 400 nM BHRF1, deep sequencing
For B1, the Log2 enrichment ratio was -2.24 log2.
B2 showed a Log2 enrichment ratio of -3.15 log2.
Binder B3 has a Log2 enrichment ratio of -2.41 log2.
With B4 the Log2 enrichment ratio was -4.69 log2.
For B5, the Log2 enrichment ratio was -2.85 log2.
B6 gave a Log2 enrichment ratio of -2.33 log2.
With B7 the Log2 enrichment ratio was -2.36 log2.
With B8 the Log2 enrichment ratio was 0.4 log2.
Binder B9 has a Log2 enrichment ratio of -3.54 log2.
With B10 the Log2 enrichment ratio was -3.6 log2.
B11 showed a Log2 enrichment ratio of -2.49 log2.
For B12, the Log2 enrichment ratio was -2.31 log2.
B13 was tested, and the Log2 enrichment ratio was -3.47 log2.
With B14 the Log2 enrichment ratio was -0.2 log2.
In the case of B15, the Log2 enrichment ratio is reported as -3.16 log2.
B16 showed a Log2 enrichment ratio of -3.17 log2.
B17 showed a Log2 enrichment ratio of -1.68 log2.
With B18 the Log2 enrichment ratio was -2.65 log2.
For B19, the Log2 enrichment ratio was -3.63 log2.
In the case of B20, the Log2 enrichment ratio is reported as -3.29 log2.
With B21 the Log2 enrichment ratio was -1.46 log2.
In the case of B22, the Log2 enrichment ratio is reported as -2.39 log2.
B23 showed a Log2 enrichment ratio of -3.81 log2.
B24 showed a Log2 enrichment ratio of -1.22 log2.
B25 showed a Log2 enrichment ratio of -3.04 log2.
B26 was tested, and the Log2 enrichment ratio was -2.01 log2.
Work on B27 yielded a Log2 enrichment ratio of -2.11 log2.
B28 gave a Log2 enrichment ratio of -2.63 log2.
B29 was tested, and the Log2 enrichment ratio was -2.43 log2.

Target: T1, Epstein-Barr virus BHRF1 a.a. 1-161 …
Test: yeast display library, FACS sort at 100 nM BHRF1, deep sequencing
In the case of B1, the Log2 enrichment ratio is reported as -3.22 log2.
B2 was tested, and the Log2 enrichment ratio was -3.63 log2.
In the case of B3, the Log2 enrichment ratio is reported as -2.52 log2.
B4 gave a Log2 enrichment ratio of -3.7 log2.
B5 showed a Log2 enrichment ratio of -1.97 log2.
B6 gave a Log2 enrichment ratio of -2.8 log2.
B7 was tested, and the Log2 enrichment ratio was -2.86 log2.
In the case of B8, the Log2 enrichment ratio is reported as -0.29 log2.
Binder B9 has a Log2 enrichment ratio of -2.79 log2.
Work on B10 yielded a Log2 enrichment ratio of -3.41 log2.
In the case of B11, the Log2 enrichment ratio is reported as -2.03 log2.
Binder B12 has a Log2 enrichment ratio of -3.2 log2.
Work on B13 yielded a Log2 enrichment ratio of -3.79 log2.
Work on B14 yielded a Log2 enrichment ratio of -0.83 log2.
B15 gave a Log2 enrichment ratio of -3.29 log2.
Work on B16 yielded a Log2 enrichment ratio of -2.44 log2.
For B17, the Log2 enrichment ratio was -3.51 log2.
B18 showed a Log2 enrichment ratio of -3.21 log2.
For B19, the Log2 enrichment ratio was -2.57 log2.
In the case of B20, the Log2 enrichment ratio is reported as -2.69 log2.
For B21, the Log2 enrichment ratio was -1.71 log2.
For B22, the Log2 enrichment ratio was -2.17 log2.
B23 was tested, and the Log2 enrichment ratio was -3.49 log2.
B24 was tested, and the Log2 enrichment ratio was -2.7 log2.
Work on B25 yielded a Log2 enrichment ratio of -2.44 log2.
For B26, the Log2 enrichment ratio was -2.08 log2.
B27 was tested, and the Log2 enrichment ratio was -2.36 log2.
In the case of B28, the Log2 enrichment ratio is reported as -2.91 log2.
Work on B29 yielded a Log2 enrichment ratio of -2.53 log2.

Reference: patent publication US20160376333A1 (University of Washington, published 2016)
